Laboratory results: US20150086555A1 (THERACLONE SCIENCES, published 2015)

What was measured:
[1] = target: recombinant soluble homotrimeric HA of A/Egypt/3300-NAMRU3/08 (H5N1) (Influenza A virus …); test: HA microarray, BCC supernatant
[2] = target: recombinant soluble homotrimeric HA of A/Japan/305/57 (H2N2) (Influenza A virus A/Japan/305/1957(H2N2)); test: HA microarray, BCC supernatant
[3] = target: recombinant soluble homotrimeric HA of A/duck/Yangzhou/02/05 (H8N4) (Influenza A virus …); test: HA microarray, BCC supernatant
[4] = target: recombinant soluble homotrimeric HA of A/chicken/Vietnam/NCVD-016/08 (H5N1) (Influenza A virus …); test: HA microarray, BCC supernatant
[5] = target: recombinant soluble homotrimeric HA of A/northern shoveler/California/HKWF115/07 (H6) (Influenza A virus A/northern …); test: HA microarray, BCC supernatant
[6] = target: recombinant soluble homotrimeric HA of A/California/4/09 (H1N1) (Influenza A virus …); test: HA microarray, BCC supernatant
[7] = target: recombinant soluble homotrimeric HA of A/Solomon Islands/3/06 (H1N1) (Influenza A virus A/Solomon …); test: HA microarray, BCC supernatant
[8] = target: recombinant soluble homotrimeric HA of A/Vietnam/1203/04 (H5N1) (Influenza A virus …); test: HA microarray, BCC supernatant
[9] = target: recombinant soluble homotrimeric HA of A/Hong Kong/2108/03 (H9N2) (Influenza A virus A/HK/2108/2003(H9N2)); test: HA microarray, BCC supernatant
[10] = target: recombinant soluble homotrimeric HA of A/Wisconsin/67/05 (H3N2) (Influenza A virus …); test: HA microarray, BCC supernatant
[11] = target: recombinant soluble homotrimeric HA of A/Indonesia/5/05 (H5N1) (Influenza A virus …); test: HA microarray, BCC supernatant
[12] = target: recombinant soluble homotrimeric HA of A/Netherlands/219/03 (H7N7) (Influenza A virus …); test: HA microarray, BCC supernatant
[13] = target: recombinant soluble homotrimeric HA of A/swine/Ontario/01911-2/99 (H4N6) (Influenza A virus …); test: HA microarray, BCC supernatant
[14] = target: recombinant soluble homotrimeric HA of A/Anhui/1/05 (H5N1) (Influenza A virus A/Anhui/1/2005(H5N1)); test: HA microarray, BCC supernatant
[15] = target: T1, hemagglutinin (HA) of influenza A/Japan/305/57 (H2N2) on whole virions (Influenza A virus A/Japan/305/1957(H2N2), UniProt P03451 16-562); test: ELISA, purified IgG on inactivated whole virions
[16] = target: T1, hemagglutinin (HA) of influenza …; test: ELISA; BCC supernatant on coated inactivated whole virions
[17] = target: recombinant homotrimeric HA A/California/4/09 H1N1 (Influenza A virus …); test: protein microarray, purified IgG, trimeric HA
[18] = target: recombinant homotrimeric HA A/Japan/305/57 H2N2 (Influenza A virus A/Japan/305/1957(H2N2)); test: protein microarray, purified IgG, trimeric HA
[19] = target: recombinant homotrimeric HA A/Hong Kong/156/97 H5N1 (Influenza A virus A/Hong Kong/156/97 …); test: protein microarray, purified IgG, trimeric HA
[20] = target: recombinant homotrimeric HA A/Hong Kong/1073/99 H9N2 (Influenza A virus A/Hong Kong/1073/99 …); test: protein microarray, purified IgG, trimeric HA
[21] = target: recombinant homotrimeric HA A/Netherlands/219/03 H7N7 (Influenza A virus …); test: protein microarray, purified IgG, trimeric HA
[22] = target: recombinant homotrimeric HA A/Wisconsin/67/05 H3N2 (Influenza A virus …); test: protein microarray, purified IgG, trimeric HA
[23] = target: recombinant homotrimeric HA A/swine/Ontario/01911-2/99 H4N6 (Influenza A virus …); test: protein microarray, purified IgG, trimeric HA
[24] = target: recombinant homotrimeric HA A/Anhui/1/05 H5N1 (Influenza A virus A/Anhui/1/2005(H5N1)); test: protein microarray, purified IgG, trimeric HA
[25] = target: recombinant homotrimeric HA A/chicken/Vietnam/NCVD-016/08 H5N1 (Influenza A virus …); test: protein microarray, purified IgG, trimeric HA
[26] = target: recombinant homotrimeric HA A/South Carolina/1/18 H1N1 (Influenza A virus A/South Carolina/1/18 …); test: protein microarray, purified IgG, trimeric HA
[27] = target: recombinant homotrimeric HA A/Solomon Islands/3/06 H1N1 (Influenza A virus A/Solomon …); test: protein microarray, purified IgG, trimeric HA
[28] = target: recombinant homotrimeric HA A/Egypt/3300-NAMRU3/08 H5N1 (Influenza A virus …); test: protein microarray, purified IgG, trimeric HA
[29] = target: recombinant homotrimeric HA A/duck/Yangzhou/02/05 H8N4 (Influenza A virus …); test: protein microarray, purified IgG, trimeric HA
[30] = target: recombinant homotrimeric HA A/northern shoveler/California/HKWF115/07 H6N4 (Influenza A virus A/northern …); test: protein microarray, purified IgG, trimeric HA
[31] = target: recombinant homotrimeric HA A/Hong Kong/2108/03 H9N2 (Influenza A virus A/HK/2108/2003(H9N2)); test: protein microarray, purified IgG, trimeric HA
[32] = target: recombinant homotrimeric HA A/Vietnam/1203/04 H5N1 (Influenza A virus …); test: protein microarray, purified IgG, trimeric HA
[33] = target: recombinant homotrimeric HA A/Indonesia/5/05 H5N1 (Influenza A virus …); test: protein microarray, purified IgG, trimeric HA

B1: TCN-533 (5256_A17a) (antibody, V domains shown)
VH: QVQLVQSGADVKKPGSSVTVSCKASGGSFSNYGINWVRQAPGQGLEWMGGIIPLINAPNYAPKFQGRVTITADMFSNIVSLQLTSLRTDDTAVYYCARRKMTTAIDYWGQGTLVTVSS
VL: QPVLTQPPSASASLGASVTLTCTLSSAYSNYKVDWYQQRPGKGPRFVMRVGTGGIVGSKGDGIPDRFSVLGSGLNRYLTIKNIQEEDESDYHCGADHGSGSNFVSPYVFGGGTKLTVL
Q: Which results are given for B1?
A: Trimeric HA Binding: RLU [1]: 34300 RLU; Trimeric HA Binding: RLU [2]: 10800 RLU; Trimeric HA Binding: RLU [3]: 24700 RLU; Trimeric HA Binding: RLU [4]: 47700 RLU; Trimeric HA Binding: RLU [5]: 41400 RLU; Trimeric HA Binding: RLU [6]: 29300 RLU; Trimeric HA Binding: RLU [7]: 39200 RLU; Trimeric HA Binding: RLU [8]: 5680 RLU; Trimeric HA Binding: RLU [9]: 172 RLU; Trimeric HA Binding: RLU [10]: 13800 RLU; Trimeric HA Binding: RLU [11]: 44100 RLU; Trimeric HA Binding: RLU [12]: 2470 RLU; Trimeric HA Binding: RLU [13]: 1580 RLU; Trimeric HA Binding: RLU [14]: 8060 RLU

B2: TCN-532 (5262_H18) (antibody, V domains shown)
VH: QVQLQESGPGLVKPSETLSLTCTVSGGSVSSETYYWSWIRQPPGKGLEWIGYIYYIGNTDYRPSLKSRVTISLDTSKNQFSLKLSSVTAADTAVYYCARGAYYDSSGYPAFYIWGQGTMVTVSS
VL: QSVLTQPPSVSGAPGQRVTISCTGSSSNIGSDYDVHWYKQLPGTAPKLLIFGNSNRPSGVPDRFSGSKSGTSASLAITGLQAEDEADYYCQSYDSSLSGFHVFGSGTKVTVL
Q: What does the source list for B2?
A: binding result [15]: no binding; ELISA virus binding (OD450) [16]: 0.07 OD450

B3: TCN-556 (5089_K12) (antibody, V domains shown)
VH: QVQLVQSGAEVKKPGASVKVSCKASGYTFIGYDMHWVRQAPGQGLEWMGWINAKRGGTNYAQKFQGRVTMTRDTSISTAYMELNSLRSDDTAVYYCARGVGSRTTIFGVLNPEFDYWGQGTLVTVSS
VL: QSALTQPPSASGSPGQSVTISCTGSSSDVGGYDYVSWYQQHPGKAPKLLIYEVTKRPSGVPDRFSGSKSGNTASLTVSGLQAEDEADYYCSSYAGNYNHVFGPGTKVTVL
Q: With B3 as the binder, how does the “Trimeric HA Binding: RLU” value [17] read?
A: 25800 RLU

Q: And the “Trimeric HA Binding: RLU” value [18]?
A: 25800 RLU

Q: And the “Trimeric HA Binding: RLU” value [19]?
A: 18600 RLU

Q: And the “Trimeric HA Binding: RLU” value [20]?
A: 995 RLU

Q: And the “Trimeric HA Binding: RLU” value [21]?
A: 21000 RLU

Q: What about the “Trimeric HA Binding: RLU” value [22] of the same binder?
A: 2360 RLU

Q: What about the “Trimeric HA Binding: RLU” value [23] of the same binder?
A: 24100 RLU

Q: And the “Trimeric HA Binding: RLU” value [24]?
A: 26900 RLU

Q: And the “Trimeric HA Binding: RLU” value [25]?
A: 22400 RLU

Q: And the “Trimeric HA Binding: RLU” value [26]?
A: 21000 RLU

Q: What about the “Trimeric HA Binding: RLU” value [27] of the same binder?
A: 24300 RLU

Q: What about the “Trimeric HA Binding: RLU” value [28] of the same binder?
A: 24800 RLU

Q: What about the “Trimeric HA Binding: RLU” value [29] of the same binder?
A: 18300 RLU

Q: What about the “Trimeric HA Binding: RLU” value [30] of the same binder?
A: 25000 RLU

Q: What about the “Trimeric HA Binding: RLU” value [31] of the same binder?
A: 25600 RLU

Q: What about the “Trimeric HA Binding: RLU” value [32] of the same binder?
A: 21500 RLU

Q: And the “Trimeric HA Binding: RLU” value [33]?
A: 23000 RLU
